Here are results for five molecules from patent publication US20120148657A1, “Lipoxygenase and Its Use in Wound Healing” (priority 2009, published 2012).

The test system of assay [1] is transiently transfected cell populations. Description: Scratch assay of transiently transfected cell populations treated with lipoxygenase inhibitor. Type of assay: cell-based, human. The method, then:
(§1) The coding sequence of AmbLOXe was subcloned in frame into the mammalian expression vector pTriEx-1 (Novagen). Plasmids were purified from transformed DH5α using the GenElute plasmid purification Kit (Sigma). Human osteosarcoma cells U2-OS or human spontaneously immortalized keratinocyte cells HaCaT (ATCC) were seeded into 100 mm cell culture dishes and grown over night to 40-50% confluence. Cells were transiently transfected with Fugene6 (Roche, Mannheim, Germany) following the instructions of the manufacturer. Briefly, 18 μl of the reagent were diluted with 600 μl serum-free medium and incubated at room temperature. After 5 min 6 μg of a 1:1 mixture of pTriEx-AmbLOXe and pEGFP-C3 (Clontech), which encodes Green Fluorescent Protein (GFP), were supplemented and incubated for additional 15 min. The transfection complex was added to the cell dishes in a dropwise manner. Cells were incubated for 24 hours before being analyzed for transfection efficiency by detection of GFP positive cells in a flow cytometer (FC-500, Beckman-Coulter, Fullerton, Calif., USA). Only cell populations were used in which about 25% GFP positive cells (U2-OS) or 12% GFP positive cells (HaCaT) could be detected. The cells were seeded into a six well plate until they reached confluence. The monolayer was then wounded with a disposable plastic pipet tip (10 μl-100 μl volume). The cells ere incubated in DMEM High Glucose (Biochrom, Berlin, Germany) supplemented with 10% FCS). The scratches were documented by microphotography and incubated for 16 hours. Then the scratches were again photographed and the remaining areas were measured using CellD (Olympus) software program. All experiments were carried out in quadruplicates and repeated at four independent times. Means and standard deviation were calculated and tested for statistical significance with ANOVA followed by Bonferroni's posthoc test.
In order to determine the influence of lipoxygenase inhibitor on the transiently transfected cell populations, cells transfected with empty vector (control) and scratched cell monolayers transfected with vectors containing human 12R LOX and AmbLOXe, respectively, received an overnight treatment with NHGA.

In assay [2] the test system is epithelial Axolotl cells. Put plainly: In vitro wound healing model: proliferation of epithelial cells from Axolotl skin biopsies (Celltiter blue). In kind it is cell-based. Particulars: for Epithelial cell proliferation: 1 μM MK-886 and 60 μM NDGA, respectively, plates incubated two days, Celltiter blue fluorescence. From the text:
In order to investigate the influence of endogenous lipoxygenase activity on the migration and proliferation of epithelial Axolotl cells, skin biopsies with 2 mm diameter were taken form Axolotl tail skin. The skin biopsies were placed in cell culture dishes coated with bovine collagen I to allow for cell migration and proliferation in an in vitro wound healing model. The wound healing is observable by […] of epithelial cell growing from borders of the skin biopsies. The proliferation rates were determined by addition of Celltiter blue (Promega), an assay for detection of metabolic activity as an indirect measurement of cell proliferation based on Resazurin/Resofurin. Two known lipoxygenase inhibitors for the human lipoxygenase were used to examine the effect of lipoxygenase activity on cell proliferation (1 μM MK-886 and 60 μM NDGA, respectively). […] That is, the plates were incubated for two days to ensure proliferation of epidermal cells. Then, the number of metabolizing cells was determined by Resozuran-Resofurin exchange (Celltiter blue, Promega, Madison, USA). 2 μl Resozuran solution was added to each well for two hours and the fluorescence was read in a multiplate reader at 520 nm. The detected fluorescence was expressed in relative fluorescent units (RFU), means and standard deviation were calculated from triplicates with Microsoft Excel and tested for statistical significance using student's T-test. Experiments were repeated at three independent times to ensure reproducibility.

The subject of assay [3] is U2-OS cells. Put plainly: Scratch assay for wound closure in transfected U2-OS cells. In kind it is cell-based, human. The following applies: for perimeter size of remaining scratch area (mean value): U2-OS cell populations transfected; for perimeter size of remaining scratch area (mean value) / wound closure in scratch assay (FIG. 2): after 16 hours incubation; for scratch width reduction: U2-OS cells transfected with expression plasmid, 16 hours incubation; for wound closure in scratch assay (FIG. 2): U2-OS cells transfected.
Excerpt: To compare the effect of epidermal lipoxygenase of human and Axolotl origin, a human cell line, U2-OS was transfected with expression plasmids encoding for the two types of lipoxygenase (pAmbLOXe, phuLOX) in combination with a vector encoding for GFP (pEGFP-C3, Clontech) as a reporter for transfection efficiency. Controls were transfected with empty vector and pEGFP-C3.
as §1
A cDNA fragment coding for full-length AmbLOXe was cloned in frame into the mammalian expression vector pTriEx-1 and transfected together with an expression plasmid for EGFP into the U2-OS cell line to evaluate a possible influence of AmbLOXe expression in a mammalian model system. Only cell populations with a transfection efficiency of about 25% (U2-OS), respectively 12% (HaCaT) were used for all assays and seeded to confluent monolayers which subsequently were wounded with scratches.
The remaining scratch areas photographed after 16 hours incubation were used to determine the influence of AmbLOXe expression on mammalian cell migration. While no AmbLOXe expression could be observed in U2-OS cell populations transfected with an empty vector, and in U2-OS cell populations transfected with huLOX, AmbLOXe expression was detected in U2-OS cell populations transfected with AmbLOXe encoding plasmids. A perimeter size reduction to a mean value of 24806.26 μm in the cell populations transfected with an empty vector was found; while cell populations containing AmbLOXe expressing cells and cell populations containing cells expressing human 12R LOX reduced the photographed scratch area to mean values of 517.46 μm and 2086.86 μm, respectively.

Assay [4] relates to Mice having a full thickness skin wound. Put plainly: Full thickness skin wound animal model (injection of transfected murine embryonic fibroblasts). Type of assay: in vivo. Particulars: for wound size: compared to human lipoxygenase, empty vector and untreated groups, C57/BR6 female mice; for wound closure (FIG. 5): determined after day 3 and day 7, transfected murine embryonic fibroblasts. The method, then:
That is, murine embryonic fibroblasts were seeded in cell culture dishes to 50% confluence and were transfected with expression plasmids encoding two different types of lipoxygenase (pAmbLOXe, phuLOX), an empty vector was used as control. After 24 hours, the cells were washed and trypsinated. Cells in an amount of 100,000 cells/ml in PBS were resuspended and 200 μl cell suspension was injected into area adjacent to a wound of a full thickness skin wound. Said full thickness skin wound was prepared in advance using mice (C57/BR6 female) where the back was shaved and the skin was disinfected. Thereafter, a full thickness skin wound was set using a 8 mm biopsy punch, resulting in a 50 mm^2 defect. A control group was prepared not treated with any cell suspension. After day 3 and day 7 a photo was taken from the wound and the reduction of wound size was measured and determined statistically.

For assay [5], the system named is HaCaT keratinocyte cell line. Description: HaCaT monolayer scratch assay (cell migration). In kind it is cell-based, human. The following applies: HaCaT populations transfected; 16 hours incubation; compared to empty vector (p=0.0035) and huLOX (p=0.028) transfected populations. The method, then:
The coding sequence of AmbLOXe was subcloned in frame into the mammalian expression vector pTriEx-1 (Novagen). Plasmids were purified from transformed DH5α using the GenElute plasmid purification Kit (Sigma). Human osteosarcoma cells U2-OS or human spontaneously immortalized keratinocyte cells HaCaT (ATCC) were seeded into 100 mm cell culture dishes and grown over night to 40-50% confluence. Cells were transiently transfected with Fugene6 (Roche, Mannheim, Germany) following the instructions of the manufacturer. Briefly, 18 μl of the reagent were diluted with 600 μl serum-free medium and incubated at room temperature. […] Cells were incubated for 24 hours before being analyzed for transfection efficiency by detection of GFP positive cells in a flow cytometer (FC-500, Beckman-Coulter, Fullerton, Calif., USA). Only cell populations were used in which about 25% GFP positive cells (U2-OS) or 12% GFP positive cells (HaCaT) could be detected. […] Then the scratches were again photographed and the remaining areas were measured using CellD (Olympus) software program. […] Means and standard deviation were calculated and tested for statistical significance with ANOVA followed by Bonferroni's posthoc test. […]
As described for the transfected U2-OS populations cellular migration was determined in HaCaT monolayer scratch assays.

Take `CC(Cc1ccc(O)c(O)c1)C(C)Cc1ccc(O)c(O)c1` (stereo not drawn) [NHGA]: in assay [1] (cell populations expressing AmbLOXe, overnight treatment with NHGA), the “scratch area (mean value)” value came to 4428.33 μm. The “migration behaviour compared to the solvent treated monolayers” value in assay [1] (cells expressing huLOX, overnight treatment with NHGA) is listed as “no significant differences”; in assay [1] (empty vector transfected cells, overnight treatment with NHGA), “no significant differences”.

Take `CC(C)c1ccc2c(c1)c(SC(C)(C)C)c(CC(C)(C)C(=O)O)n2Cc1ccc(Cl)cc1` [MK-886]: the Epithelial cell proliferation result in assay [2] is reported as “significantly reduced”. For the same molecule, the “effect on the Axolotl epithelial cells compared with NDGA” value in assay [2] (treatment of MK-886) was “equal effect”.

Turning to `CC(Cc1ccc(O)c(O)c1)C(C)Cc1ccc(O)c(O)c1` (stereo not drawn) [NDGA], the Epithelial cell proliferation entry in assay [2] is “significantly reduced”.

B1: AmbLOXe: epidermal lipoxygenase from axolotl, Seq. ID. Nos. 1 and 2, EMBL Accession No. EU814616; tested by expression plasmid transfection (protein, listed as Ambystoma mexicanum)
chain: MVDEYRIKEDRDLGEILLIRLHKGPFSIFPEDNWYCMYVTVTSPGGVIYHFPCYRWIEGYPTVELAEGTAMLSSASNLHVTLKKQRESDLEQRRKVYRWKVYHPSFPKCIDVANNDELDKDAKYSITKTVHFVINKNVSNIAIKLKGFDGRQESWKSFDELKRVYWTLKTAKSEYVSHHWKEDAFFGYQYLNGPDPTLIKRCNKIPGNFPVTDEMVSYSLGASTSLEKELQKGNIYIVDHKMMEGLRANVLNGKQQYMAAPLCLFYRTPKDEVIPLAIQLNQTPGSETPLFLPSDNEWDWILAKIWVRSTSFAFHQAVSHFLRTHVFAEVFCLATLRQLPMAHPLYKLLVPHLRYTLQINVLARERLIGPGGAFDKNTAVGIAGIAELIKRDMETLKYSTLCLPENLQSREVESLPHFYYRDDGMKIWLAIESYVSGIVDYYYKSEESIQKDPELQAWVAEIFKEGFLERKSSGIPSSLETRVELIKYLTMVIFTCSAEHAAVNSGQFDFLSWMPNGPSTMRQPPPKTKGLATMESVLEALPEVGITTNIMTTVWTLSKEPGDMRPLGTYPDEHFTEEGPKQCIRAFQERLSEISREIEHRNASLPIKYNYMNPKVIENSVSI
On to B1, for which, in assay [3], the “perimeter size of remaining scratch area (mean value)” value turned out to be 517.46 μm, the scratch width reduction is 89.94% and the “wound closure in scratch assay (FIG. 2)” value is “substantially completed”. In addition, in assay [1] (solvent treated cell populations expressing AmbLOXe), the “measured wound scratch (mean value)” value was found to be 3388.99 μm. Moreover, the wound size entry in assay [4] (day 3) is on record as “reduced dramatically”. Besides, the wound size entry in assay [4] (day 7) is listed as “reduced dramatically”. For the same molecule, in assay [4], the “wound closure (FIG. 5)” value is listed as “significant reduction”. Moreover, the “remaining scratch perimeter size” value in assay [5] is “significantly smaller”.

B2: huLOX: human epidermal lipoxygenase (human 12R LOX) expressed from plasmid phuLOX, comparator (protein, UniProt O75342 1-701, looked up)
Arachidonate 12-lipoxygenase, …: MATYKVRVATGTDLLSGTRDSISLTIVGTQGESHKQLLNHFGRDFATGAVGQYTVQCPQDLGELIIIRLHKERYAFFPKDPWYCNYVQICAPNGRIYHFPAYQWMDGYETLALREATGKTTADDSLPVLLEHRKEEIRAKQDFYHWRVFLPGLPSYVHIPSYRPPVRRHRNPNRPEWNGYIPGFPILINFKATKFLNLNLRYSFLKTASFFVRLGPMALAFKVRGLLDCKHSWKRLKDIRKIFPGKKSVVSEYVAEHWAEDTFFGYQYLNGVNPGLIRRCTRIPDKFPVTDDMVAPFLGEGTCLQAELEKGNIYLADYRIMEGIPTVELSGRKQHHCAPLCLLHFGPEGKMMPIAIQLSQTPGPDCPIFLPSDSEWDWLLAKTWVRYAEFYSHEAIAHLLETHLIAEAFCLALLRNLPMCHPLYKLLIPHTRYTVQINSIGRAVLLNEGGLSAKGMSLGVEGFAGVMVRALSELTYDSLYLPNDFVERGVQDLPGYYYRDDSLAVWNALEKYVTEIITYYYPSDAAVEGDPELQSWVQEIFKECLLGRESSGFPRCLRTVPELIRYVTIVIYTCSAKHAAVNTGQMEFTAWMPNFPASMRNPPIQTKGLTTLETFMDTLPDVKTTCITLLVLWTLSREPDDRRPLGHFPDIHFVEEAPRRSIEAFRQRLNQISHDIRQRNKCLPIPYYYLDPVLIENSISI
Regarding B2, in assay [3], the “perimeter size of remaining scratch area (mean value)” value came out at 2086.86 μm, the scratch width reduction was determined as 56.75% and the “wound closure in scratch assay (FIG. 2)” value is listed as “has not finished yet”. Further, in assay [4], the “wound closure (FIG. 5)” value was “comparable with the control groups”.
